Assay [1] concerns the target T1, receptor clone 36 (entire coding sequence of unnamed RIKEN Fantom protein product putatively similar to … (murine, UniProt Q9CZB0 1-169)).
T1 construct: also called MpcII-3-related protein; not shown: fusion partner encoded by the target vector of the mouse heart cDNA library (BacterioMatch two-hybrid); not described
T1 sequence: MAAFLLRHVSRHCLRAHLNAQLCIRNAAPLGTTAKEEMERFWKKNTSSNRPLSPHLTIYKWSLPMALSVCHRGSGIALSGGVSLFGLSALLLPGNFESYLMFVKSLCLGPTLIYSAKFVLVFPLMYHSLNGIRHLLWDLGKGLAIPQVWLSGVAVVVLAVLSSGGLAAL
Briefly: bacterial two-hybrid (BacterioMatch), peptide bait against heart cDNA target clone. As to the method: (§1) PCR products were digested with EcoRI and XhoI, and subcloned into the bait pBT plasmid (Stratagene; La Jolla, Calif.) to generate a recombinant library of baits designated “pBT-hp.” pBT-hp plasmids were transformed into XL1-Blue MRF' Kan competent cells, and 2 μl or 5 μl of cells plated on 100 mm LB-chloramphenicol plates to determine the total number of primary transformants. The remaining transformants were pooled and plated on 150 mm LB-chloramphenicol plates. […] The plates were then scraped, and bacteria harvested. After plating 2 μl and 5 μl of the harvested library in order to determine the size of the amplified library, the pool of pBT-hp plasmids was purified from the pooled bacteria using a commercially available maxiprep DNA column. Purified DNA was used to transform BacterioMatch® Two-Hybrid System reporter strain competent cells according to the manufacturer's instructions (Stratagene; La Jolla, Calif.).
(§2) Bacterial two-hybridization experiments were performed with the BacterioMatch® Two-Hybrid System (Stratagene) according to the manufacturer's instructions. Briefly, pBT-hp and heart cDNA library plasmids were co-transformed using 50 ng each plasmid. Aliquots (100 μl) of co-transformants were plated on selective LB plates (500 μg/ml carbenicillin) and incubated at 37° C. for 20 hours before scoring the plates for growth. […]

Assay [2] concerns the target T2, murine cysteine-rich protein 2 / heart LIM-protein (HLP/CRIP2), full length (murine, UniProt Q9DCT8 1-208).
T2 construct: also called ESP1
T2 sequence: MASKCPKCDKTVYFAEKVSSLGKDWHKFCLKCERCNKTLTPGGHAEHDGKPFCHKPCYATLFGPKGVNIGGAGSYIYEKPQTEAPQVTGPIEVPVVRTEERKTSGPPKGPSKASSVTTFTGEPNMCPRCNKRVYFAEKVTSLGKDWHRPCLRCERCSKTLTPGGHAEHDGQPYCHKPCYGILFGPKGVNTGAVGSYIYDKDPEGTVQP
Briefly: competition: free peptide against CRPPR phage on HLP/CRIP2-transfected 293T cells. As to the method: (§3) Receptor transfections and phage binding assays were performed as follows. 293T cells were transfected with pMH6-derived plasmids (Roche Diagnostics; Indianapolis, Ind.) encoding HLP/CRIP2, Sigirr/TIR8, MpcII-3-related protein and bc10 using the Fugene transfection reagent (Roche Diagnostics). Briefly, 10 μg of plasmid was mixed with 700 μl of serum-free DMEM and 30 μl of Fugene transfection reagent and incubated for 15 minutes at room temperature before the mixture was added to cells. After forty-eight hours, cells were detached from culture dishes using EDTA and washed once with PBS. Phage displaying CRPPR (SEQ ID NO: 1), CKRAVR (SEQ ID NO: 7), […] (SEQ ID NO: 11) or […] (SEQ ID NO: 12) and nonrecombinant control phage (1×10⁹ p.f.u) were incubated with transfected cells for two hours at 4° C. Unbound phage were removed by five washes with 1% BSA in PBS. Bound phage were rescued by addition of bacteria; binding efficiencies were determined by plaque assay as described above.
(§4) Peptides for competition assays were synthesized at The Burnham Institute peptide facility using Fmoc chemistry in a solid-phase synthesizer prior to purification by HPLC and confirmation of their identity by mass spectrometry. […] After five washes with 1% PBS, bound phage were rescued and quantitated by plaque assay.

Assay [3] addresses T3, murine bladder cancer-associated protein homolog (bc10), full length (murine, UniProt P62951 1-87).
T3 construct: Expressed from full-length cDNA in a pMH6-derived plasmid in 293T cells
T3 sequence: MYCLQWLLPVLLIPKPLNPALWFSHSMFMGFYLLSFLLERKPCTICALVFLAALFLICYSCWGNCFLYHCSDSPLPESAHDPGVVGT
Briefly: competition: free peptide against … phage on bc10-transfected 293T cells. The method, then:
as §3, §4

Assay [4] deals with T4, receptor clone 5 (carboxy-terminal 92 amino acids, residues 117 to 208, of heart LIM-protein / cysteine-rich … (murine, UniProt P36201 117-208 (rat entry))).
T4 construct: Target clone of the bacterial two-hybrid screen; also called HLP clone; HLP/CRIP2 fragment; not shown: fusion partner encoded by the target vector of the mouse heart cDNA library (BacterioMatch two-hybrid); not described
T4 sequence: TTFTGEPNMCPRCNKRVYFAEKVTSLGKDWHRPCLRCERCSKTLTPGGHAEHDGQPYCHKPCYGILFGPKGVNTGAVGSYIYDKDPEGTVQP
Put plainly: bacterial two-hybrid (BacterioMatch), peptide bait against heart cDNA target clone. The method, then:
as §1, §2

The target in assay [5] is T5, murine single Ig IL-1 receptor related protein (Sigirr/TIR8), full length (murine, UniProt Q9JLZ8 1-409).
T5 construct: Expressed from full-length cDNA in a pMH6-derived plasmid in 293T cells
T5 sequence: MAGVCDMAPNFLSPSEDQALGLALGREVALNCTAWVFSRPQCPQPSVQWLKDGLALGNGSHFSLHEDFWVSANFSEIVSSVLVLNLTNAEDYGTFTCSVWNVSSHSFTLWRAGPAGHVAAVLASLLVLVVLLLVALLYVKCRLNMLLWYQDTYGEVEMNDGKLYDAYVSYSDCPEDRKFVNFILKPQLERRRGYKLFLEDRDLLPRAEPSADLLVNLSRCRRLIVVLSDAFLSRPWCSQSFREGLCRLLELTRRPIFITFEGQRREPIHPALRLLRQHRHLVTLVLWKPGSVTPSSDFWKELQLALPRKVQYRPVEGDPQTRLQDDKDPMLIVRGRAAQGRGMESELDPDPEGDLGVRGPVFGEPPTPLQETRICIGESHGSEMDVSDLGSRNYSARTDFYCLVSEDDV
Briefly: competition: free peptide against CKRAVR phage on Sigirr/TIR8-transfected 293T cells. As to the method:
as §3, §4

Where no end group is shown, it is not given here.

B1: CRSTRANPC (SEQ ID NO: 11), peptide insert in bait plasmid pBT-hp (peptide)
chain: CRSTRANPC
modifications: cysteine pairing not given here; also: part of pBT bait fusion protein, position of partner not given here
notes: not shown: fusion partner encoded by bait plasmid pBT (BacterioMatch two-hybrid); not described, position relative to the peptide n
B1: the binding result in assay [1] was “binds”.

Take CRPPR (also called CRPPR peptide) [free synthetic peptide CRPPR (SEQ ID NO: 1)]: the binding result in assay [2] is reported as “binds”.

As for CPKTRRVPC (also called cognate peptide) [free synthetic peptide CPKTRRVPC (SEQ ID NO: 12)], the binding result in assay [3] is recorded as “binds”.

B2: CRPPR (SEQ ID NO: 1), peptide insert in bait plasmid pBT-hp (peptide)
chain: CRPPR
notes: Hybrid bait protein of the bacterial two-hybrid screen; not shown: fusion partner encoded by bait plasmid pBT (BacterioMatch two-hybrid); not described, position relative to the peptide n
As for B2, the binding result in assay [4] is listed as “binds”.

B3: free synthetic peptide CKRAVR (SEQ ID NO: 7) (peptide)
peptide: CKRAVR
notes: also called free peptide CKRAVR; cognate peptide
For the molecule B3, the binding result in assay [5] is reported as “binds”.
